Molecular target: the molecule itself
Experiment: crystal structure; BsPatB, sitting drop, 0.2 M ammonium acetate pH 7.1, 20% PEG 3,350

B1: Bacillus subtilis 168 PatB (PLP-bound C-S lyase) (enzyme)
chain: MGGGFAMNFDKREERLGTQSVKWDKTGELFGVTDALPMWVADMDFRAPEAITEALKERLDHGIFGYTTPDQKTKDAVCGWMQNRHGWKVNPESITFSPGVVTALSMAVQAFTEPGDQVVVQPPVYTPFYHMVEKNGRHILHNPLLEKDGAYAIDFEDLETKLSDPSVTLFILCNPHNPSGRSWSREDLLKLGELCLEHGVTVVSDEIHSDLMLYGHKHTPFASLSDDFADISVTCAAPSKTFNIAGLQASAIIIPDRLKRAKFSASLQRNGLGGLNAFAVTAIEAAYSKGGPWLDELITYIEKNMNEAEAFLSTELPKVKMMKPDASYLIWLDFSAYGLSDAELQQRMLKKGKVILEPGTKYGPGGEGFMRLNAGCSLATLQDGLRRIKAALSENLYFQG
modifications: PLP covalently bound to Lys234 (internal aldimine)
notes: N-terminal overhang from cloning into pBADcLIC; PatB (C-S lyase, cystathionine beta-lyase activity) of Bacillus subtilis 168, full-length gene; C-terminal linker of the vector before the His10 tag; also called BsPatB; source: E. coli MC1061, pBADcLIC, purified (HisTrap)
  stoichiometry N: 2

Source: article PMC7385124, “The molecular basis of thioalcohol production in human body odour” (Scientific Reports, 2020)
